For data set [1], the system named is oolemma. The conditions noted are these: sea urchin; cited from earlier work.
The subject of data set [2] is mouse sperm-egg fusion. Conditions: cited from earlier work.
Data set [3] deals with Metaphase II eggs. The data set can be described thus: Egg labeling by indirect immunofluorescence. The class given is cell-based, mouse. The conditions noted are these: 100 μg/ml protein, 45 min. The method, then: Metaphase II eggs were obtained as previously described (Coonrod et al, 1999) and incubated with 5% NGS/media for 30 min. Oocytes were washed five times in TYH medium and incubated with 100 μg/ml recmSLLP1 or 100 μg/ml lysozymes for 45 min at 37° C. and 5% CO2. Oocytes were washed five times and incubated with guinea pig anti-recmSLLP1 polyclonal antibody (1:50), sheep anti-human lysozyme (1:25) or rabbit anti-chicken lysozyme (1:400) in 5% NGS/media for 1 h at 37° C. and 5% CO2. Oocytes were washed five times and incubated with donkey anti-guinea pig/Texas Red antibody (1:200) or goat anti-guinea pig/FITC antisera 1:200), donkey anti-sheep and goat anti-rabbit FITC-labeled secondary antibody (1:200) (Jackson ImmunoResearch), respectively in 5% NGS/media for 1 h at […] 37° C. and 5% CO2. Oocytes were washed and mounted in media onto glass slides and visualized under a Zeiss Standard 18 ultraviolet microscope. Images were captured by using MrGrab 1.0 (Carl Zeiss Vision GmbH, Germany).

Data set [4] deals with zona-free mouse eggs. As to the kind of experiment: In vitro fertilization with zona-free eggs (sperm-oolemma binding and fusion). It is filed as cell-based. The conditions noted are these: 25 μg of human SLLP1. How it is done: For the sperm-oolemma binding assay, two cauda epididymides were placed in 900 μl drops of fertilization medium under paraffin oil for the dense mass of spermatozoa to flow freely for ˜15 min and then diluted at 1×10^6/ml for 3 h of capacitation. Cumulus oocyte complexes were placed in 200 μl drops of TYH medium under paraffin oil. Cumulus cells were removed by treating the oocytes for 3 min with 1 mg/ml hyaluronidase in TYH medium and then washed 8 times in 50 μl drops. Zona pellucidae were loosened by treating the oocytes with 10 μg/ml chymotrypsin in TYH media for 1 min and loosened zonae were removed by mechanical agitation using a pulled Pasteur pipette. The oocytes were then washed 10 times and allowed to recover from chymotrypsin treatment by incubating in TYH media for 3 h, following which, they were stained with 10 μg/ml Hoechst dye for 10 min, and then gently washed. […]
To compare the effects of recmSLLP1 with human and chicken c lysozymes, spermatozoa were first incubated under standard capacitating conditions. Oocytes were pre-incubated for 45 min before insemination with recmSLLP1 (0.1 to 200 μg/ml) or with hSLLP1 (25 μg/ml) or with chicken or human lysozyme (50 μg/ml, 100 μg/ml). Untreated capacitated sperm were then added to the incubation drops containing the treated eggs with a final sperm concentration of 2.5×10^4/ml. Thus, in all the experiments performed the sera, the recombinant protein, or the lysozyme was present in the incubation droplet during gamete interaction. After 30 min of gamete co-incubation, oocytes were gently washed 5 times in TYH medium and placed between a microscope slide and an elevated coverslip and visualized at 160×. Binding to the oocyte was scored by counting the number of bound spermatozoa per oocyte using phase contrast. Fusion with the egg was scored by counting the number of decondensed sperm heads within each oocyte using fluorescence microscopy.

Data set [5] has as its target T1, fluorescent tagged synthetic peptide (Mus musculus, UniProt Q6HA09).
T1 construct: The mature rSAS1R (414 residues); 20 vector-encoded residues including His6 (pET-28b) (N); made in house; host or cells: E. coli BL21DE3
T1 sequence (Q6HA09 22-435): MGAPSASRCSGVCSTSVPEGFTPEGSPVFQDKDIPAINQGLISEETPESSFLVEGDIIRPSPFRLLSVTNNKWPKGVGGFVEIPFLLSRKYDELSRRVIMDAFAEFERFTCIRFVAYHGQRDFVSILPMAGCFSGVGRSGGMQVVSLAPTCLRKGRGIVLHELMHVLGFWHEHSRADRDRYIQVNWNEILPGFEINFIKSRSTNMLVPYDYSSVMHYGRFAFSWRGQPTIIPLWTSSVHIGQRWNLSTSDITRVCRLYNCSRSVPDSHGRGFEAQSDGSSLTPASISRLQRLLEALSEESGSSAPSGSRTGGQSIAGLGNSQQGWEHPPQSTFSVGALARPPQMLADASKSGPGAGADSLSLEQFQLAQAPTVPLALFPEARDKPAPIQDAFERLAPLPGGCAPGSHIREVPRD
As to the kind of experiment: Protease activity assay of SAS1R (EnzChek Peptidase/Protease Assay Kit, FRET). It is filed as biochemical. How it is done: Protease activity was assayed with purified soluble rSAS1R using the EnzChek® Peptidase/Protease Assay Kit.
Protease activity was assayed in serial dilutions (0-2000 ng) of purified bacterial recombinant SAS1R using the EnzChek® Peptidase/Protease Assay Kit (Molecular Probes, OR), which provides a FRET (fluorescence resonance energy transfer)-based method for quantitation of a wide range of protease activities. This assay was performed in 100 μl size reactions and repeated three times with varying concentrations of recombinant SAS1R. Fluorescence was measured over 24 h following the manufacturer's protocol. Protease activity of recombinant SAS1R appeared within 1 h and increased within 24 h. SLLP1 was used as a negative control. The assay method was validated using purified trypsin as a positive control (Sigma, MO).

The test system of data set [6] is cumulus intact oocytes. The data set can be described thus: Mouse in vitro fertilization, capacitated sperm pre-incubated with rSAS1R. It is filed as cell-based. How it is done: Epididymal sperm from sexually mature and oocytes from 6 to 8 weeks old ICR mice were used for gamete studies and IVF. Capacitated sperm in presence or absence of rSAS1R were used to inseminate cumulus intact oocytes and fertilization was scored by counting two cell embryos.
ICR mice were used in all experiments. Suspensions of epididymal spermatozoa from sexually mature male mice were prepared for insemination of isolated oocytes. Oocytes were obtained from 6 to 8 weeks old females superovulated with 10 IU PMSG and 10 IU hCG, injected intraperitoneally at 48 h intervals. Females were killed 16 h after hCG injection, and both oviducts were immediately removed, placed in mineral oil, and flushed to recover oocytes.
In vitro fertilization was conducted with cumulus intact oocytes using sperm dispersed from cauda epididymides. Sperm were placed for 5 min in 200 μl drops of fertilization medium under paraffin oil. […] The eggs were then placed in 5 μl of fertilization medium between a microscope slide and an elevated coverslip, and visualized at 160× using light and fluorescence microscopy (Zeiss Axioplan). Two-cell embryos were scored as fertilized, while one-celled oocytes were scored as unfertilized.

The subject of data set [7] is capacitated sperm. As to the kind of experiment: Co-localization of rSAS1R binding sites and SLLP1 on sperm. It is filed as cell-based, mouse. The conditions noted are these: capacitated sperm incubated with rSAS1R, probed with both antibodies. How it is done:
Zona intact-, zona free oocytes, early embryos and sperm were collected as before (10), blocked and probed with 1st and 2nd antibody and imaged with UV-microscopy. For co-LC studies, gametes were incubated with soluble rSAS1R or rSLLP1, washed, probed with 1st- and 2nd antibodies and imaged with UV-microscopy.
Similarly capacitated mouse sperm were also examined for co-localization of SAS1R binding sites and SLLP1 localization. Sperms were incubated with increasing concentrations (0-100 μg/ml) of rSAS1R for 1 h, then sperm were washed two times at 700 g for 8 min and droplets were made on glass slide. These droplets were air-dried for 30 min and rehydrated again with 20 μl of PBS for 5 min. Now in the droplets, sperm were fixed with 20 μl of 4% paraformaldehyde for 25 min and then washed with 20 μl of PBS thrice for 5 min each. Now the droplets were blocked with 10% NGS for 30 min and incubated with guinea pig anti-rSAS1R polyclonal antibody (1:200) and rat anti-rSLLP1 polyclonal antibody (1:200) simultaneously, in 0.1% NGS/media for 1 h at 37° C. and 5% CO2. All the droplets were washed three times and incubated with goat anti-guinea pig/Cy3 red antibody (1:200, Jackson ImmunoResearch, PA) and goat anti-rat/FITC green antibody (1:200, Jackson ImmunoResearch, PA), in 0.1% NGS/media for 1 h at 37° C. and 5% CO2. Sperms were washed and mounted in media on glass slides. […]

The test system of data set [8] is mouse eggs. The data set can be described thus: Binding of SLLP2 to mouse eggs. The class given is cell-based. The conditions noted are these: human SLLP2. The method, then:
To analyze the biologic activity of human SLLP2, it was determined whether it would bind to an egg, in this case, a mouse egg.
For comparison to the use of human sperm SLLP2, an experiment was performed to determine if purified mouse SLLP2 would bind to Zona intact mouse eggs. […] Competitive assays were then performed to determine whether the addition of recombinant mouse SLLP2 to a mixture of mouse sperm and mouse eggs could inhibit binding of sperm and eggs. Various amounts of recombinant mouse SLLP2 were added (5, 25, 50, 100, and 200 μg/ml) and the number of sperm bound per egg was determined.

Where only a bound is given, the exact number is not on record here.

Take `c1cnc2c(c1)ccc1cccnc12` [1,10-phenanthroline]: in data set [1], the “binding of acrosome reacted sperm to the oolemma” value is reported as “no effect” and the “block of membrane fusion” value is recorded as 95%. Moreover, in data set [2], the sperm-egg binding result is recorded as “without reducing sperm-egg binding” and the sperm-egg fusion entry is given as “inhibited mouse sperm-egg fusion”.

Turning to “chicken lysozyme: conventional chicken c lysozyme used as comparator”, the “fluorescence of mouse oocytes after incubation with protein and respective antibody” value in data set [3] is reported as “did not show any fluorescence”.

As for “human lysozyme: conventional human c lysozyme used as comparator”, the “fluorescence of mouse oocytes after incubation with protein and respective antibody” value in data set [3] is reported as “did not show any fluorescence”.

B1: human SLLP1: human sperm lysozyme-like protein 1 (SEQ ID NO:14) (protein, listed as Homo sapiens)
chain: MVSALRGAPLIRVHSSPVSSPSVSGPRRLVSCLSSQSSALSQSGGGSTSAAGIEARSRALRRRWCPAGIMLLALVCLLSCLLPSSEAKLYGRCELARVLHDFGLDGYRGYSLADWVCLAYFTSGFNAAALDYEADGSTNNGIFQINSRRWCSNLTPNVPNVCRMYCSDLLNPNLKDTVICAMKITQEPQGLGYWEAWRHHCQGKDLTEWVDGCDF
Turning to B1, the “sperm-egg binding and fusion” value in data set [4] is “maximally inhibited”.

B2: rSAS1R: mature recombinant mouse SAS1R (414 residues; SEQ ID NO:6) expressed in E. coli with histidine tag, affinity purified (protein, listed as Mus musculus)
chain: MGAPSASRCSGVCSTSVPEGFTPEGSPVFQDKDIPAINQGLISEETPESSFLVEGDIIRPSPFRLLSVTNNKWPKGVGGFVEIPFLLSRKYDELSRRVIMDAFAEFERFTCIRFVAYHGQRDFVSILPMAGCFSGVGRSGGMQVVSLAPTCLRKGRGIVLHELMHVLGFWHEHSRADRDRYIQVNWNEILPGFEINFIKSRSTNMLVPYDYSSVMHYGRFAFSWRGQPTIIPLWTSSVHIGQRWNLSTSDITRVCRLYNCSRSVPDSHGRGFEAQSDGSSLTPASISRLQRLLEALSEESGSSAPSGSRTGGQSIAGLGNSQQGWEHPPQSTFSVGALARPPQMLADASKSGPGAGADSLSLEQFQLAQAPTVPLALFPEARDKPAPIQDAFERLAPLPGGCAPGSHIREVPRD
modifications: His tag
B2: the proteolytic activity result in data set [5] (200-2000 ng rSAS1R in 100 μl assay, FRET, up to 24 h) is given as “dose dependent proteolytic activity”. The “time until protease activity appeared” value in data set [5] (fluorescence measured over 24 h) is on record as not above 1 h. The reduction in fertilization result in data set [6] (10 μg/ml rSAS1R) was “not statistically significant”; in data set [6] (25 μg/ml rSAS1R, P≦0.03, two cell embryos scored), 89%. The binding to sperm entry in data set [7] was “binds to acrosome of sperm and co-localizes with native SLLP1”.

B3: human SLLP2: recombinant human SLLP2 expressed in E. coli (SEQ ID NO:18) (protein, listed as Homo sapiens)
chain: MKAWGTVVVTLATLMVVTVDAKIYERCELAARLERAGLNGYKGYGVGDWLCMAHYESGFDTAFVDHNPDGSSEYGIFQLNSAWWCDNGITPTKNLCHMDCHDLLNRHILDDIRCAKQIVSSQNGLSAWTSWRLHCSGHDLSEWLKGCDMHVKIDPKIHP
Consider B3, for which, in data set [8], the “binding to mouse eggs (cross-species)” value was “can indeed bind with mouse eggs”.

These data come from patent publication US9803012B2, “Compositions and methods for regulating SAS1R” (UNIVERSITY OF VIRGINIA PATENT FOUNDATION, priority 2005, dated 2017).
